# Experimental data reported in patent publication US20230131339A1, “EPI-X4 BASED PEPTIDES AND DERIVATIVES THEREOF” (Universitaet Ulm, priority 2020, published 2023).
# Where “and” joins values, the source holds several entries; their conditions need not be identical. Equal values may be shown once. Where a SMILES comes first, the peptide text is derived from it. Where no end group is shown, it is not given here. Side-chain parts run from the residue outwards. [ ]: non-standard residue; d: D form. The star is where a group is joined. DOTA = O=C(O)CN1CCN(CC(=O)O)CCN(CC(=O)*)CCN(CC(=O)O)CC1; Stearoyl = CCCCCCCCCCCCCCCCCC(=O)*; Palmitoyl = CCCCCCCCCCCCCCCC(=O)*; Glu = glutamate linker
# B1: SEQ ID NO.: 164 (peptide)
# peptide: ILRWSRK([Glu-Stearoyl])LPSVS
# notes: derived from JM#198 by replacing the cysteine at position 10 by a serine; also called ILRWSRK(Glu-Ste)LPSVS
# What was measured:
# [1] = Stability of radiolabeled conjugates in buffer (radiochemical purity over time); format: physicochemical; settings: NH4-acetate buffer pH 5.2, ethanol, room temperature
# Protocol: The stability of ^177Lu/^68Ga-labeled DOTA-conjugated peptides in ammonium acetate buffer (0.4 M, pH 5.2) and sodium acetate buffer (0.2 M, pH 4-4.5) was assessed by determining the radiochemical purity (RCP) of each radiolabeled conjugate at different time points (0, 1, 2, 4, and 24 h for ^177Lu-complexes and at 0, 1 and 2 h for ^68Ga-complexes) at room temperature. For this, an aliquot of labeling solution was stored at room temperature. RP-HPLC injections were consecutively performed at the desired time points.
# Radiolysis-induced instability of [^177Lu]Lu-labeled DOTA-conjugated peptides over time was tracked by determining the radiochemical purity (Table 3). Results are means±standard deviation from a minimum of two separate experiments.
# [2] = Lipophilicity, shake-flask method (n-octanol/PBS pH 7.4); format: physicochemical
# Protocol: The hydrophilic/lipophilic character of the ^177Lu/^68Ga-labeled conjugates was determined by the “shake-flask” method. To a pre-saturated solution containing 500 μL of n-octanol and 500 μL of phosphate-buffered saline (PBS) at pH 7.4, 10 μL of 1 picomol ^177Lu/^68Ga-labeled conjugates was added. The solutions were vortexed for 1 h to reach equilibrium and then centrifuged (3000 rpm) for 10 min. Hundred μl of the sample was removed from each phase and measured in a γ-counter. The partition coefficient was calculated as the average of the logarithmic values (n=3) of the ratio between the radioactivity in the organic and the PBS phase. Results are means±standard deviation from a minimum of two separate experiments. ^177Lu/^68Ga-labeled Pentixather, which is a known CXCR4-directed endoradiotherapeutic agent, is used as reference molecule.
# [3] = test system: CXCR4-tropic X4-HIV-1 (NL4-3); format: cell-based; settings: for IC50: CXCR4-tropic X4- (NL4-3)
# [4] = test system: CXCL12-induced AKT signaling; assay: ERK/AKT signaling assay in SupT1 cells: AKT phosphorylation; format: cell-based
# Protocol: (§1) Third, the activity of the claimed EPI-X4 derivatives was tested by the effect on CXCL12/CXCR4-mediated ERK (Extracellular-signal Regulated Kinases) and AKT (a serine/threonine-protein kinase) signaling (FIG. 3). In that assay CXCR4 expressing cells are stimulated with the CXCR4 chemokine-ligand CXCL12, which subsequently leads to phosphorylation of ERK and AKT. Preincubation of cells with CXCR4-antagonists blocks those pathways. […] Two or three independent experiments were carried out in triplicates for each peptide in each assay. The error bars refer to the standard deviation.
# (§2) ERK/AKT signaling assay. CXCL12 induced ERK and AKT phosphorylation was determined in SupT1 cells. For this, 100,000 cells were seeded per well in a 96-V well plate in 100 μl medium supplemented with 1% FCS. Cells were incubated for 2 hours at 37° C. before 5 μl of compounds were added. After 15 min incubation at 37° C. cells were stimulated by adding 5 μl CXCL12 diluted in PBS to reach a final concentration of 100 ng/ml. Cells were further incubated for 2 min before the reaction was stopped by adding 20 μl of 10% PFA. Cells were fixed for 15 min at 4° C. before PFA was removed and cells permeabilized by adding 100 μl ice cold methanol. After 15 min at 4° C. the methanol was removed, cells were washed and 30 μl primary antibody was added (phospho-p44/42 MAPK (Erk1) (Tyr204)/(Erk2) (Tyr187) (D1H6G) mouse mAb #5726; phosphor-Akt (Ser473) (193H12) rabbit mAb #4058 Cell Signaling) for 1 hour at 4° C. After the antibody was removed and cells were washed secondary antibody was added for 30 min. Cells were washed afterwards and subsequently analyzed by flow cytometry.
# [5] = test system: CXCL12-induced ERK signaling; assay: ERK/AKT signaling assay in SupT1 cells: ERK phosphorylation; format: cell-based
# Protocol: as §1, §2
# [6] = test system: CXCL12 induced Ca2+-signalling; assay: Ca++ signaling in BCR-ABL-transformed murine bone marrow cells; format: cell-based; settings: 1 μM
# Protocol: Fifth, it was shown that the peptide derivatives inhibit calcium-signaling. CXCL12 stimulation of CXCR4 expressing B-cells leads to a strong calcium-release. In the presence of CXCR4 antagonists this response is reduced.
# For calcium measurement, 1×10^6 BCR-ABL-transformed murine bone marrow cells were incubated with 5 μg/mL of Indo-1 (Molecular Probes) and 0.5 μg/mL of pluronic F-127 (Molecular Probes) in Iscove's medium supplemented with 1% FCS (Pan Biotech) at 37° C. for 45 min. Cells were then washed by centrifugation and the cell pellets were resuspended in Iscove's medium with 1% FCS and treated with the EPI-X4 derivatives (1 μM or 0.5 μM) for 10 minutes at room temperature. Cells were pre-warmed for 5 minutes at 37° C. Calcium flux was assessed by FACS measurement at BD LSR Fortessa. After 30 seconds of baseline recording, CXCR4-dependent calcium signaling was determined by stimulating with 100 ng/ml of mouse SDF-1a (PeproTech).
# [7] = test system: CXCL12 induced migration of T-cells; assay: Migration assay (transwell, Jurkat cells); format: cell-based
# Protocol: For each peptide, three independent experiments were performed. The error bars refer to the standard deviation.
# Migration assay. Migration assays were performed using 96-well transwell assay plates (Corning Incorporated, Kennebunk, Me., USA) with 5 μm polycarbonate filters. […] Next, 75 μL (0.5×10^5 cells) of Jurkat cells (in assay buffer), together with/without the compounds, were added into the upper chambers. After 4 h at 37° C. (5% CO2), 100 μL of the lower chambers were transferred to a fresh 96 V-well plate and analyzed with Cell-Titer-Glo® assay (Promega, Madison, Wis., USA). The percentage of migrated cells was calculated as described by Balabanian et al. (2005). In order to obtain the relative migration in %, the percentage of migrated cells were normalized to the CXCL12-only control.
# [8] = mice, i.v. tail vein
# Protocol: Peptides were injected into the tail vein of mice. 4 hours post injection, mice were sacrificed and blood taken by heart punctation. Plasma was obtained by centrifugation and tested for remaining activity in antibody competition assay. As control, peptide was spiked into native plasma (ex vivo). IC50 values were determined by non-linear regression assuming 1.8 ml in vivo blood volume. Remaining activity was determined by IC50 (ex vivo)/IC50 (in vivo)×100. The tested peptides included JM #143 (SEQ ID NO.: 54), JM #144 (SEQ ID NO.: 55), JM #192 (SEQ ID NO.: 89), JM #180 (SEQ ID NO.: 77), JM #194 (SEQ ID NO.: 91), JM #235 (SEQ ID NO.: 130), JM #198 (SEQ ID NO.: 95), JM #255 (SEQ ID NO.: 150), JM #257 (SEQ ID NO.: 152) and JM #204 (SEQ ID NO.: 99). […] Shown are data from 2 individual mice measured in duplicates.
# In vivo stability assay. 100 μl of a 700 μg/ml stock solution of the peptide in 0.9% NaCl was intravenously injected in the tail vein of C57BL/6NCrl (BL6) mice. 4 hours post injection, mice were killed by cervical dislocation. Mouse plasma was obtained by heart punctation. Blood was 19:1 diluted with 0.16 M NaEDTA and centrifuged at 2000×g for 20 min at 4° C. to obtain plasma. Plasma was stored at −80° C. till remaining peptide activity in the plasma was determined by 12G5 antibody competition assay.
# [9] = target: T1, CXC chemokine receptor type 4 (CXCR4) (human, UniProt P61073 1-352); assay: competition
# T1 chain: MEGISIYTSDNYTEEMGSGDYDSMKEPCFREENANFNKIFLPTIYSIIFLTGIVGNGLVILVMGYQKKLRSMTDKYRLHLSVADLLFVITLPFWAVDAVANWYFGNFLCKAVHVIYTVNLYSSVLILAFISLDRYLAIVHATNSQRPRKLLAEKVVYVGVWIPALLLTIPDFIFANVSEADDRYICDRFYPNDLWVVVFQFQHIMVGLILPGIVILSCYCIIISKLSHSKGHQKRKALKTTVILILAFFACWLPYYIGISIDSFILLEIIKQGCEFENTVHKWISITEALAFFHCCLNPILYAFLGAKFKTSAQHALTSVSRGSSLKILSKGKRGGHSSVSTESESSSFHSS
# [10] = target: T1, CXC chemokine receptor type 4 (CXCR4); assay: competition
# [11] = target: T2, CXC chemokine receptor type 4 (CXCR4) (human, UniProt P61073 1-352); assay: cell-based or functional assay
# [12] = target: T2, CXC chemokine receptor type 4 (CXCR4); assay: antibody competition assay
# Protocol: Antibody competition assay. Competition of compounds with antibody binding was performed on SupT1 cells. For that cells were washed in PBS containing 1% FCS and 50,000 cells were then seeded per well in a 96 V-well plate. Buffer was removed and plates were precooled at 4° C. […] The antibody was used at a concentration closed to its determined Kd. 15 μl compounds were then added to the cells and 15 μl antibody immediately afterwards. Plates were incubated at 4° C. in the dark for 2 hours. Afterwards cells were washed twice with PBS containing 1% FCS and fixed with 2% PFA. Antibody binding was analyzed by flow cytometry (FACS CytoFLEX; Beckman Coulter®).
# [13] = target: T1, CXC chemokine receptor type 4 (CXCR4); assay: 12G5 antibody competition
molecule,measurement,setting,value
[^177Lu]Lu-DOTA-K-JM#29: ^177Lu-labeled DOTA-K-JM #29 (SEQ ID NO.: 165) ([dL]LRWSRKMPCVSK(DOTA); also: 177Lu complex of DOTA),Radiochemical purity,[1]; time point 0 h,98 ± 1%
same,Radiochemical purity,[1]; time point 1 h,96 ± 3%
same,Radiochemical purity,[1]; time point 2 h,92 ± 9%
same,Radiochemical purity,[1]; time point 4 h,90 ± 9%
same,log DO/PBS pH7.4,[2],−1.49 ± 0.29
"CCCCCCCCCCCCCCCC(=O)N[C@@H](CCC(=O)NCCCC[C@H](NC(=O)[C@H](CCCNC(=N)N)NC(=O)[C@H](CO)NC(=O)[C@H](Cc1c[nH]c2ccccc12)NC(=O)[C@H](CCCNC(=N)N)NC(=O)[C@H](CC(C)C)NC(=O)[C@@H](N)[C@@H](C)CC)C(=O)N[C@@H](CC(C)C)C(=O)N1CCC[C@H]1C(=O)N[C@@H](CS)C(=O)N[C@H](C(=O)N[C@@H](CO)C(=O)O)C(C)C)C(=O)O [JM #143, ILRWSRK(Glu-Pal)LPCVS]",IC50,[3],5 nM
same,fold increase of anti-HIV-1 potency compared to WSC02,[3]; compared to WSC02,more than 60 fold
same,reduction of CXCL12-induced AKT signaling,[4]; 0.1 μM,20-25%
same,reduction of CXCL12-induced AKT signaling,[4]; 1 μM,~70%
same,reduction of CXCL12-induced ERK signaling,[5]; 0.1 μM,20-25%
same,reduction of CXCL12-induced ERK signaling,[5]; 1 μM,~70%
same,reduction of CXCL12 induced calcium-signaling,[6],almost completely blocked calcium-signaling
same,inhibition of CXCL12 induced migration of T-cells (in words),[7],strongly increased antagonistic effect in CXCL12 induced cell migration
"CCCCCCCCCCCCCCCC(=O)N[C@@H](CCC(=O)O)C(=O)NCCCC[C@H](NC(=O)[C@H](CCCNC(=N)N)NC(=O)[C@H](CO)NC(=O)[C@H](Cc1c[nH]c2ccccc12)NC(=O)[C@H](CCCNC(=N)N)NC(=O)[C@H](CCSC)NC(=O)[C@H](N)CC(C)C)C(N)=O [JM #194, d-LMRWSRK(Glu-Pal)-NH2] (H-[dL]MRWSRK([Glu-Palmitoyl])-NH2; N-terminus assumed)",anti-HIV-1 activity (in words),[3],strongly increased anti-HIV-1 activity
same,IC50,[3],2 nM
same,reduction of CXCL12 induced calcium-signaling,[6],almost completely blocked calcium-signaling
same,inhibition of CXCL12 induced migration of T-cells (in words),[7],high activity
same,remaining activity in plasma in vivo 8 hours post injection,[8]; 8 hours post injection,about 9%
"CCCCCCCCCCCCCCCC(=O)NCCCC[C@H](NC(=O)[C@H](CCCNC(=N)N)NC(=O)[C@H](CO)NC(=O)[C@H](Cc1c[nH]c2ccccc12)NC(=O)[C@H](CCCNC(=N)N)NC(=O)[C@H](CC(C)C)NC(=O)[C@@H](N)[C@@H](C)CC)C(=O)N[C@@H](CC(C)C)C(=O)N1CCC[C@H]1C(=O)N[C@@H](CS)C(=O)N[C@H](C(=O)N[C@@H](CO)C(=O)O)C(C)C [JM #144, ILRWSRK(Pal)LPCVS]",reduction of CXCL12 induced calcium-signaling,[6],almost completely blocked calcium-signaling
same,remaining activity in plasma in vivo 4 hours post injection,[8]; 4 hours post injection,27%
ILRWSRK([Glu-Palmitoyl])LPCVS [JM#143],IC50,[9],204 nM
same,IC50,[10],176 nM
[dM]LRWSRKK-NH2 (not fully specified (residue 8)) [JM#197],"IC50, HIV inhibition assay",[11],> 150 nM
same,IC50,[12],< 25 nM
[dL]MRWSRKK-NH2 (not fully specified (residue 8)) [JM#195],"IC50, HIV inhibition assay",[11],50 nM to 150 nM (2×) and > 150 nM
same,IC50,[12],< 25 nM
ILRWSRK-NH2 [JM#118],"IC50, HIV inhibition assay",[11],> 150 nM
same,IC50,[9],181 nM
same,IC50,[10],224 nM
[dM]LRWSRK([Glu-Palmitoyl])-NH2 [JM#196],"IC50, HIV inhibition assay",[11],> 150 nM
same,IC50,[12],< 25 nM
same,IC50,[13],31 nM
ILRWSRK(Palmitoyl)LPCVS [JM#144],"IC50, X4-HIV-1 inhibition assay",[11],< 5 nM
same,IC50,[9],125 nM
same,IC50,[10],87 nM
B1,"IC50, HIV inhibition assay",[11],> 150 nM
same,IC50,[12],< 25 nM
ILRWSRKLPCVS (not fully specified (residue 7)) [JM#198],"IC50, HIV inhibition assay",[11],> 150 nM
same,IC50,[12],< 25 nM
